Source: US20140056878A1 (ANAPTYSBIO, published 2014)

Legend:
complement protein C5 = complement protein C5 (UniProt P01031 19-673; P01031 678-1676); experiment: cell-based or functional assay
C5-C345C = target: T1, C5-C345C (Homo sapiens (Human), UniProt P01031 1530-1676); experiment: BIACORE screening
T1 construct: C-terminal 147 amino acid residues of the 1648 residue C5 protein; A Myc-tagged or Dylight-650-labelled form was used for FACS selection; In the BIACORE analyses it is named only 'C5-C345C' analyte, and no tag is stated; also called C345C domain of complement C5 protein; C5 domain C5-C345C
T1 sequence (P01031 1530-1676 limits assumed): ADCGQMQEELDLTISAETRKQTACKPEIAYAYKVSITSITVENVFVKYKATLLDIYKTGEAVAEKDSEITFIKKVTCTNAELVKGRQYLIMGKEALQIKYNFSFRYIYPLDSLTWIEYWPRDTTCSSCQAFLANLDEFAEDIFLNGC

complement protein C5, sequence (P01031 19-673 limits assumed, chain 1 of 2): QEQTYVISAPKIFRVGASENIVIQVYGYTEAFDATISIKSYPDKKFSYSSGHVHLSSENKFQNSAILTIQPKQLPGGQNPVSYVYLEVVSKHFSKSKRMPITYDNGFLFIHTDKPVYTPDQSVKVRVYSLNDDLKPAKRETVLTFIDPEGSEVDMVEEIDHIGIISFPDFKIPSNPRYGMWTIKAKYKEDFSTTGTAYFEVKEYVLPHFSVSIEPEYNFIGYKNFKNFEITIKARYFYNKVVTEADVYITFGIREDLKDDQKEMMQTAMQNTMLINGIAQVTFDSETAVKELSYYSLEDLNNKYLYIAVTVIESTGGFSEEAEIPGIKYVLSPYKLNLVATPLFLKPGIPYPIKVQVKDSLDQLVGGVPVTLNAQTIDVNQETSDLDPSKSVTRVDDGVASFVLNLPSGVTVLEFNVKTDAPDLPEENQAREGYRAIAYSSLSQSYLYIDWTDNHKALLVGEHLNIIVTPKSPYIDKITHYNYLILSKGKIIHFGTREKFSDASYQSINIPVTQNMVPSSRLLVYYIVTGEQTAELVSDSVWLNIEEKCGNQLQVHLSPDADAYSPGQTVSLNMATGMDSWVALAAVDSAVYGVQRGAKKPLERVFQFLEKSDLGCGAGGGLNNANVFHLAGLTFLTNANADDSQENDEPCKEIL
complement protein C5, sequence (P01031 678-1676 limits assumed, chain 2 of 2): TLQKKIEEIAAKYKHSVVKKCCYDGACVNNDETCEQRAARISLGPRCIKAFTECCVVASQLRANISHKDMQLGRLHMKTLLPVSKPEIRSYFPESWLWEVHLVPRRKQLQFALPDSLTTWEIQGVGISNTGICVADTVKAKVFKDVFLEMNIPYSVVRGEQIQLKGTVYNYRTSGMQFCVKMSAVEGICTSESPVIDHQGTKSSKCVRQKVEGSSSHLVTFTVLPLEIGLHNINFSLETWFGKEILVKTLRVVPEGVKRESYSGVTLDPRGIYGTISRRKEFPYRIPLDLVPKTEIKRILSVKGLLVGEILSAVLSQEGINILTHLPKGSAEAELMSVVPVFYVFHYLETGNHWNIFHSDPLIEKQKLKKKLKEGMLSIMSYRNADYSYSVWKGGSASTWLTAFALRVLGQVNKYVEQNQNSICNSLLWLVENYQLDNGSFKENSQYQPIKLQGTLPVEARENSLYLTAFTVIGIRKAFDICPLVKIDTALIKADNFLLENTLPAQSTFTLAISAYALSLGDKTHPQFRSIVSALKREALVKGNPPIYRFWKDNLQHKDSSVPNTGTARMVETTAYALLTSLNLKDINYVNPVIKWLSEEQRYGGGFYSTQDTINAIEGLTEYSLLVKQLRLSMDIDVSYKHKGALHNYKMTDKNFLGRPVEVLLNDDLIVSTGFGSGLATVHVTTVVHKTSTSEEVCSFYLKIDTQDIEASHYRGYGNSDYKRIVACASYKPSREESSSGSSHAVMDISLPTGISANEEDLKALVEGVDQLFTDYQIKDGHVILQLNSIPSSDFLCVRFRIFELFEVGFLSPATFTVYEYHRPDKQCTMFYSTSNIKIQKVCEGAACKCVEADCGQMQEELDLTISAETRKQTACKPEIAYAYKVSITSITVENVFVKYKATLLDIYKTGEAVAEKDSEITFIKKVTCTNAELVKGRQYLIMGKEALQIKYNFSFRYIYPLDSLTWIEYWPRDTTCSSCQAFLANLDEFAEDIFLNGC

Binder | inhibition of hemolysis of antibody-coated sheep erythrocytes (classical complement pathway, 1% normal human serum) (complement protein C5) | Kd (C5-C345C) | fold improvement in KD over APE777 (C5-C345C)
APE1142 (antibody, IgG1, V domains shown) VH: EVQLLESGGGLVQPGGSLRLSCAASGFTFSSYAMTWVRQAPGKGLEWVSVISGSGSTYYADSVKGRFTISRDNSKNTLYLQMNSLRAEDTAVYYCARRGLRYNYFDYWGQGTTLTVSS VL: not shown | 1 µM |  | 
APE1224 (antibody, V domains shown) VH: EVQLLESGGGLVQPGGSLRLSCAASGFTFSSYAMTWVRQAPGKGLEWVSAISGSGSTYYADSVKGRFTISRDNSKNTLYLQMNSLRAEDTAVYYCARRGLRYNYFDYWGQGTTLTVSS VL: not shown | 1 µM | 0.2 nM | 1000 fold
